This is an account of results in paper PMC4788467 (Leukemia, 2015).

By Kd is commonly meant the concentration at which binding is half-saturated. High values mean a looser complex, low ones a tighter complex. The term koff denotes the rate constant with which the complex falls apart. The low end stands for slow dissociation, the high end for fast dissociation. A word on the kon: it is the second-order rate constant of association.

Sequences and labels used below:
T1: WT1 126-134 (RMFPNAPYL) peptide alone (human)
T1 chain: RMFPNAPYL

B1: S3.6 scFv (scFv, V domains shown)
VH: EVQLLESGGGLVQPGGSLRLSCAASGFTFSSYAMSWVRQAPGKGLEWVSLIDPWGQETLYADSVKGRFTISRDNSKNTLYLQMNSLRAEDTAVYYCAKLTGRFDYWGQGTLVTVSS
VL: DIQMTQSPSSLSASVGDRVTITCRASQSISNYLNWYQQKPGKAPKLLIYSASQLQSGVPSRFSGSGSGTVFTLTISSLQPEDFATYYCQQGPGTPNTFGQGTKVEIK
B2: Q2L scFv (scFv, V domains shown)
VH: B1 VH
VL: B1 VL with N31S, Q53L, V70D
B3: S3.1 scFv (scFv, V domains shown)
VH: B1 VH with R87G
VL: B1 VL with N31S, V70D, S77N
B4: Q1L scFv (scFv, V domains shown)
VH: B1 VH
VL: B1 VL with N31S, V70D
B5: Q2L scFv-Fc (Fc fusion)
VH: B1 VH
VL: B1 VL with N31S, Q53L, V70D
B6: S3.3 scFv (scFv, V domains shown)
VH: B1 VH
VL: B1 VL with D1N, N31S, Q53L, S65N, V70D

Positions count from the first letter of the chain named. In names and notes the source's numbering stands.

The first experiment deals with biotinylated soluble HLA-A2/WT1_(126) (…) complex (Homo sapiens, HLA-A*02:01, biotin (the complex is biotinylated; site not stated)). Description: SPR. (SPR reads the build-up and loss of mass on a sensor chip optically.)
Consider B1, for which the Kd was 14.1 nM, the koff is 0.00177 s⁻¹ and the kon worked out at 126000 M⁻¹ s⁻¹.

The molecule B2 gave a dissociation constant (Kd) of 3.08 nM, a koff of 0.000355 s⁻¹ and a kon of 115000 M⁻¹ s⁻¹.

Molecule B3 registered a Kd of 12.9 nM, a koff of 0.00191 s⁻¹ and a kon of 148000 M⁻¹ s⁻¹.

Consider B4, for which the Kd was 58.3 nM and the kon was 94300 M⁻¹ s⁻¹.

B5 registered a Kd of 0.002 nM, a koff of 1.15e-06 s⁻¹ and a kon of 484000 M⁻¹ s⁻¹.

B6 showed a koff of 5.35e-05 s⁻¹ and a kon of 22000 M⁻¹ s⁻¹.

For another experiment, the target named is HLA-A2/WT1 235-243 (…) monomer (Homo sapiens, HLA-A*02:01, biotin (the complex is biotinylated; site not stated)). Kind of experiment: ELISA. (ELISA stands for enzyme-linked immunosorbent assay.)
As to B2, the binding result is reported as “no binding”.

As for B5, the binding result is on record as “no binding”.

In the next experiment the target is HLA-A2/WT1 187-195 (…) monomer (Homo sapiens, HLA-A*02:01, biotin (the complex is biotinylated; site not stated)). Kind of experiment: ELISA.
Turning to B2, the binding result is recorded as “no binding”.

Regarding B5, the binding result was “no binding”.

The target of another experiment is T1, WT1 126-134 (RMFPNAPYL) peptide alone. Description: ELISA.
As for B2, the binding result was “no binding”.

As to B5, the binding result is reported as “no binding”.
